Measurements: US20100233165A1 (published 2010)

Legend:
ALCAM/MEMD/CD166 [1] = molecular target: T1, ALCAM/MEMD/CD166 (UniProt Q13740 28-583, limits assumed); assay: apparent KD by FACS on Du-145 cells, IgG1 incubated at 4° C. overnight, curve fitting of MFI
T1 construct: whole, on cells; On Du-145 prostate cancer cells for FACS, and from lysates of surface-biotinylated Du-145 cells for IP/Western; Glycosylated, with a band of about 105 kDa; Du-145 is a human prostate cancer line
T1 sequence (looked up): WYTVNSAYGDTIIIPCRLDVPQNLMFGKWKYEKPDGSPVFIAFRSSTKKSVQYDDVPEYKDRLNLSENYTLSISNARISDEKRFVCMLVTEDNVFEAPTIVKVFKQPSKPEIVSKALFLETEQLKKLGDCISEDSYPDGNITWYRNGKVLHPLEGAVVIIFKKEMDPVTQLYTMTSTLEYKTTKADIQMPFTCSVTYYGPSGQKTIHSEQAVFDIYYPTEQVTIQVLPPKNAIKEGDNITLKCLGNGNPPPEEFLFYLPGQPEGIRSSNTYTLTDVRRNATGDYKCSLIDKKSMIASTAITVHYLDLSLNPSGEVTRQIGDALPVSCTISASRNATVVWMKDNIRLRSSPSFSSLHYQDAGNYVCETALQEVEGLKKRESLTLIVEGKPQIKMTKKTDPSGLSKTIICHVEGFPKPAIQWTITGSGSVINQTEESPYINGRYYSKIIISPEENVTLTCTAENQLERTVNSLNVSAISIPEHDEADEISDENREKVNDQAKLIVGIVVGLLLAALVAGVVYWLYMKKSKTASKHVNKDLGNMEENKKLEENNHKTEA
Description: Monodispersed DU-145 cells were incubated with varying concentrations of IgG1s at 4° C. overnight to allow equilibrium binding. After washing, bound human IgG1s were detected by R-phycoerythrin-conjugated goat anti-human secondary antibody and analyzed by FACS. Mean fluorescence intensity (MFI) values were plotted and the KD was determined by curve fitting using GraphPad (GraphPad Software, San Diego, Calif.).

ALCAM/MEMD/CD166 [2] = molecular target: T1, ALCAM/MEMD/CD166; assay: caption of the IHC table
Description: Phage antibodies selected by LCM were expected to bind to clinically relevant antigens on cancer cells in situ. We performed immunohistochemical studies using soluble scFv fragments derived from LCM-selected phage antibody on prostate cancer tissue sections. […] The 585II41 scFv also stained tumor cells intensely on frozen tissue slides (FIG. 4, panel B). Some basal cells in normal epithelium adjacent to tumor were also stained with reduced intensity (Table 5). […] These experiments indicate that antibodies obtained from LCM selection bind to antigens that exist in patient specimens and thus are clinically relevant to human prostate cancer. The corresponding antigens are likely targets for therapeutic intervention.
TABLE 5 Immunohistochemistry (IHC) results of the 585II41 and UA20 scFv fragments on a panel of frozen CaP and normal tissues. The numbers of cases studied are indicated. Biotinylated scFv fragments were first tested on cell lines to ensure binding activity and then used for IHC studies. As a control, a random scFv with no binding activity to cell lines was used to register the background level of staining. No change, no change in staining level was observed when compared with the result of the control scFv

ALCAM/MEMD/CD166 [3] = molecular target: T1, ALCAM/MEMD/CD166; assay: FACS competition on Du-145 cells against 585II41 scFv

B1: anti-ALCAM IgG1 (585II41.1, also known as H3) (antibody, V domains shown)
VH: QVQLVESGGGLVQPGGSLRLSCAASGFTFSSYAMSWVRQAPGKGLEWVSAISGSGGSTYYADSVKGRFTISRDNSKDTLYLQMNSLRAEDTAVYYCASRSLLDYWGQGTLVTVSS
VL: NFMLTQDPAVSVALGQTVRITCQGDSLRSYYASWYQQKPGQAPLLVIYGKNNRPSGIPDRFSGSSSGNTASLTITGAQAEDEADYYCNSRDSSGNPVFGGGTKVTVL
notes: Human IgG1 (detected with anti-human secondary antibody); also called H3 IgG; H3 IgG1
Which Kd (ALCAM/MEMD/CD166 [1]) does the source give for B1 here?
The Kd was 4.4 µM.

B2: 585II41 scFv (scFv, not shown: small tags and cut ends)
scFv: QVQLVESGGGLVQPGGSLRLSCAASGFTFSSYAMGWVRQAPGKGLEWVSAISGSGGSTYYADSVKGRFTISRDNSKDTLYLQMNSLRAEDTAVYYCASRSLLDYWGQGTLVTVSSGGGGSGGGGSGGGGSNFMLTQDPAVSVALGQTVRITCQGDSLRSYYASWYQQKPGQAPLLVIYGKNNRPSGIPDRFSGSSSGNTASLTITGAQAEDEADYYCNSRDSSGNPVFGGGTKVTVL
notes: Soluble monomeric scFv from E. coli periplasm, purified by IMAC; Biotinylated for FACS analysis by the general methods; also called clone #10; H3 variant
Does B2 bind (ALCAM/MEMD/CD166 [2])?
Result: binds

B3: H3 scFv (585II41.1) (scFv)
scFv: QVQLVESGGGLVQPGGSLRLSCAASGFTFSSYAMSWVRQAPGKGLEWVSAISGSGGSTYYADSVKGRFTISRDNSKDTLYLQMNSLRAEDTAVYYCASRSLLDYWGQGTLVTVSSGGGGSGGGGSGGGGSNFMLTQDPAVSVALGQTVRITCQGDSLRSYYASWYQQKPGQAPLLVIYGKNNRPSGIPDRFSGSSSGNTASLTITGAQAEDEADYYCNSRDSSGNPVFGGGTKVTVL
notes: also called clone #11; anti-ALCAM scFv
Does B3 bind (ALCAM/MEMD/CD166 [3])?
Result: binds
